The results in this text go back to patent publication KR20200067522A (dated 2020).

The target in assay [1] is T1, CRM 197 의 A 단편(21kDa) (Corynebacterium diphtheriae C7 (β197) …, UniProt P00588 33-225).
T1 construct: domain: A 단편(21kDa); Band on a reducing SDS-PAGE / western blot after trypsin digestion
The assay can be described thus: western blot of trypsin/DTT-cleaved CRM197. (Immunoblotting shows a protein as a band on a membrane.)

Assay [2] concerns the target T2, CRM 197 (Cross-reactive material 197) (Corynebacterium diphtheriae C7 (β197) …, UniProt P00588 33-567).
T2 construct: mature; Purified to more than 95% purity from the fermentation supernatant
The assay can be described thus: BLI (Octet Red), CRM197 in two-fold dilutions of 50 to 3.13 nM.

B1: 단일클론항체 3F9 (인간 IgG로 전환) (antibody, V domains shown)
VH: EVQLVESGGGLVQPGGSLRLSCAASGFTFSDYAMSWVRQAPGKGLEWVSAISSSSGNKYYADSVKGRFTISRDNSKNTLYLQMNSLRAEDTAVYYCAKLGVRETLSWYFDLWGQGTLVTVSS
VL: DIQMTQSPSSLSASVGDRVTITCRASQSISNYLNWYQQKPGKAPKLLIYAASRLQSGVPSRFSGSGSGTDFTLTISSLQPEDFATYYCQQSYSFPWTFGQGTKVEIK
notes: Human IgG made from a Fab of a human synthetic Fab library; kappa light chain is only implied by the anti-human kappa ELISA
Turning to B1, the binding result in assay [1] is given as “no binding”. For the same molecule, binding in assay [2] was characterised by a dissociation constant (Kd) of 4.45 nM.
